Test results from patent publication US20250027068.

Target: pooled human IgG (human IgG1,2,3 and 4)

Protein | Enzyme Activity Endpoint Assay (purified): Fab′2 | Enzyme Activity Endpoint Assay (purified): Fc | Enzyme Activity Endpoint Assay (purified): IgG | Enzyme Activity Endpoint Assay (purified): scIgG | Enzyme Activity Endpoint Assay: Fab′2 | Enzyme Activity Endpoint Assay: Fc | Enzyme Activity Endpoint Assay: IgG | Enzyme Activity Endpoint Assay: scIgG
PRT-363 (protein) MSQTEDSESLQRLRDIEDFQAEKEKQNVVYTKWLDGVDVKDHDFRKIVDGNSAYYATPLLNGRGWYDINKDFNRDSDKCAAAVAANMFHYWLDRNRDNVDRFLRQNPEKHGIIELPDGQLKLSDFLNTYESDDGYRDKSKLFDFISENFNGPVWTDKLLDNYINGYAYNSKYGRTIEDPTKNTSKINFFKEVFNEKILTNNHSIRNQNEFSVLLIEALYTGKAIGLSYGPAGLRHGLGHIISVWGADLDADGNVVAIYVTDSDDKKLTIGDERVGLKRYKISTDDEGRLRLTAYEETHNTGGQVRGLWTLDTGKQAWADYFDKTEQTGTDQAEQ | 838 ng/µL | 462 ng/µL | 0 ng/µL | 354 ng/µL | – | – | – | –
PRT-364 (protein) MSQTEDSESLQRLRDIEDFQAEKKKQNVVYTKWLDGVDVKDHDFRKIVDGNEAYYATPLLNGRGFYDINKDFNRDSDKCAAAVAANMFHYWLDRNRDNVDRFLRQNPEKHGIIELPDGQLKLSDFLNTYESDDGYRDKSKLFDFISENFNGPVWTDKLLDNYINGYAYNYKYGRTIEDPTKNTSKINFFKEVFNEKILTNNHSIRNQNELSVLLSEALYTGKAIGLSYGPAGLRHSLGHIISVWGADLDADGNVVAIYVTDSDDKKLTIGDERVGLKRYKISTDDEGRLRLTAYEETHNTGGQIRGLWTLDTGKQAWADYFDKTEQTGTDQAEQ | 863 ng/µL | 439 ng/µL | 0 ng/µL | 334 ng/µL | – | – | – | –
PRT-356 (protein) MSQTEDSESLQRLRDIEDFQAEKEKQNVVYTKWLDGVDVKDHDFRKIVDGNSAYYATPLLNGRGFYDINKDFNRDSDKCAAAVAANMFHYWLDRNRDNVDRFLRQNPEKHGIIELPDGQLKLSDFLNTYESDDGYRDKSKLFDFISNNFNGPVWTDKLLDNYINGYAYNYKYGRTIEDPTKNTSKINFFKEVFNEKILTNNHSIRNQNEFSVLLSEALYTGKAIGLSYGPAGLRHSLGHIISVWGADLDADGNVVAIYVTDSDDKKLTIGDERVGLKRYKISTDDEGRLRLTAYEETHNTGGQVRGLWTLDTGKQAWADYFDKTEQTGTDQAEQ | 780 ng/µL | 418 ng/µL | 0 ng/µL | 289 ng/µL | – | – | – | –
PRT-348 (protein) MSQTEDSESLQRLRDIEDFQAEKKDQNVVYTKWLDGVDVKDHDFRKIVDGNIAYYATPLLNGRGWYDINKDFNRDSDKCAAAVAANMFHYWLDINRDNVDRFLRQNPEKHGIIELPDGQLKLSDFLNTYESDHGYRDKSKLFDFISENFNGPVWTDKLLDNYINGYAYNYKYGRTIEDPTKNTSKINFFKEVFNEKILTNNHSIRNQNEFSVLLIEALYTGKAIGLSYGPAGLRHSLGHIISVWGADLDADGNVVAIYVTDSDDKKLTIGDERVGLKRYKISTDDENRLRLTAYEETHNTGGQVRGLWTLDTGKYAWADYFDKTEQTGTDQAEQ | 736 ng/µL | 415 ng/µL | 0 ng/µL | 325 ng/µL | – | – | – | –
PRT-372 (protein) MSQTEDSESLQRLRDIEDFQAEKKKQNVVYTKWLDGVDVKDHDFRKIVDGNSAYYATPLLNGRGFYDINKDFNRDNDKCAAAVAANMFHYWLDRNRDNVDRFLRQNPEKHGIIELPDGQLKLSDFLNTYESDDGYRDKSKLFDFISENFNGPVWTDKLLDNYINGYAYNSKYGRTIEDSTKNTSKINFFKEVFNEKILTNNHSIRNQNEFSVLLIEALYTGKAIGLSYGPAGLRHGLGHIISVWGADLDADGNVVAIYVTDSDDKKLTIGDERVGLKRYKISTDDEGRLRLTAYEETHNTGGQIRGLWTLDTGKQAWADYFDKTEQTGTDQAEQ | – | – | – | – | 0 ng/µL | 218 ng/µL | 122 ng/µL | 560 ng/µL
PRT-357 (protein) MSQTEDSESLQRLRDIEDFQAEKEKQNVVYTKWLDGVDVKDHDFRKIVDGNSAYYATPLLNGRGWYDINKDFNRDSDKCAAAVAANMFHYWLDRNRDNVDRFLRQNPEKHGIIELPDGQLKLSDFLNTYESDDGYRDKSKLFDFISNNFNGPVWTDKLLDNYINGYAYNYKYGRTIEDPTKNTSKINFFKEVFNEKILTNNHSIRNQNEFSVLLSEALYTGKAIGLSYGPAGLRHSLGHIISVWGADLDADGNVVAIYVTDSDDKKLTIGDERVGLKRYKISTDDEGRLRLTAYEETHNTGGQVRGLWTLDTGKQAWADYFDKTEQTGTDQAEQ | 724 ng/µL | 389 ng/µL | 0 ng/µL | 313 ng/µL | – | – | – | –
PRT-371 (protein) MSQTEDSESLQRLRDIEDFQAEKKKQNVVYTKWLDGVDVKDHDFRKIVDGNSAYYATPLLNGRGFYDINKDFNRDNDKCAAAVAANMFHYWLDRNRDNVDRFLRQNPEKHGIIELPDGQLKLSDFLNTYESDDGYRDKSKLFDFISENFNGPVWTDKLLDNYINGYAYNYKYGRTIEDSTKNTSKINFFKEVFNEKILTNNHSIRNQNEFSVLLIEALYTGKAIGLSYGPAGLRHSLGHIISVWGADLDADGNVVAIYVTDSDDKKLTIGDERVGLKRYKISTDDEGRLRLTAYEETHNTGGQIRGLWTLDTGKQAWADYFDKTEQTGTDQAEQ | 623 ng/µL | 373 ng/µL | 0 ng/µL | 295 ng/µL | – | – | – | –
PRT-365 (protein) MSQTEDSESLQRLRDIEDFQAEKKKQNVVYTKWLDGVDVKDHDFRKIVDGNEAYYATPLLNGRGFYDINKDFNRDSDKCAAAVAANMFHYWLDRNRDNVDRFLRQNPEKHGIIELPDGQLKLSDFLNTYESDDGYRDKSKLFDFISENFNGPVWTDKLLDNYINGYAYNYKYGRLIEDPTKNTSKINFFKEVFNEKILTNNHSIRNQNELSVLLSEALYTGKAIGLSYGPAGTRHSLGHIISVWGADLDADGNVVAIYVTDSDDKKLTIGDERVGLKRYKISTDDEGRLRLTAYEETHNTGGQIRGLWTLDTGKQAWADYFDKTEQTGTDQAEQ | 735 ng/µL | 385 ng/µL | 0 ng/µL | 312 ng/µL | – | – | – | –
PRT-374 (protein) MSQTEDSESLQRLRDIEDFQAEKKKQNVVYTKWLDGVDVKDHDFRKIVDGNEAYYATPLLNGRGFYDINKDFNRDNDKCAAAVAANMFHYWLDRNRDNVDRFLRQNPEKHGIIELPDGQLKLSDFLNTYESDDGYRDKSKLFDFISENFNGPVWTDKLLDNYINGYAYNYKYGRTIEDSTKNTSKINFFKEVFNEKILTNNHSIRNQNELSVLLSEALYTGKAIGLSYGPAGLRHSLGHIISVWGADLDADGNVVAIYVTDSDDKKLTIGDERVGLKRYKISTDDEGRLRLTAYEETHNTGGQIRGLWTLDTGKQAWADYFDKTEQTGTDQAEQ | 985 ng/µL | 536 ng/µL | 0 ng/µL | 379 ng/µL | – | – | – | –
PRT-340 (protein) MTITSVWTKGVTPPTPEDFRENNEDVLHAPYLANQGWYDITKAFDGKDNLLCGAATAGNMLHWWFDQNKEEIERYLKKHPEKQKIIFNNQELFDVKAAIDTKDSQTNSKLFDYFRDKAFPNLSARQLGVMPDLVLDMFINGYYLNLGKTQSTDVNRPYQDKDKRGGIFDAVFTRGDQTTLLTARHDLKNKGLNEISDLIKQELTEGKALALSHTYANVSINHVINLWGADFDAEGNLEAIYVTDSDANASIGMKKYFVGRNAHGKVAISAKKIEGDNIGAQVLGLFTLSTGQDQWQKLS | 692 ng/µL | 374 ng/µL | 0 ng/µL | 307 ng/µL | – | – | – | –
PRT-341 (protein) MTITSVWTKGVTPPTPEDFRENNEDVLHAPYLANQGWYDITKAFDGKDNLLCGAATAGNMLHWWFDQNKEEIERYLKKHPEKQKIIFNNQEWFDVKAAIDTKDSQTNSKLFNYFRDKAFPNLSARQLGVMPDLVLDMFINGYYLNLPKTQSTDVNRPYQDKDKRGGIFDAVFTRGDQTTLLTARHDLKNKGLNEISDLIKQELTEGKALALSHTYANVSINHVINLWGADFDAEGNLEAIYVTDSDANASIGMKKYAVGVNAHGKVAISAKKIEGDNIGAQVLGLFTLSTGQDIWQKLS | 832 ng/µL | 199 ng/µL | 0 ng/µL | 318 ng/µL | – | – | – | –
PRT-456 (protein) MITSVWTKGVTPPTDFIKGEDVFHAPYKAGQGWYDITKAFDGGDDLLCGAATAGNMLHWWFDQNKDQIEAYLKEHPEKQKINFNGEQMFDVKEAIDTKDDQTNSELFNYFKEKAFPYLSTKHLGVFPDHVLDMFINGYRLSLTNHGPTPVKEGSKDPRGGIFDAVFTRGDQSKLLTSRHDLKNKTLNEISQLIKQELTEGKALALSHTYANVRINHVINLWGADFDAEGNLEAIYVTDSDSNASIGMKKYFVGVNSAGKVAISAKEIEDDNIGAQVLGLFTLSTGQDIWNQTNLEHHHHHH | – | – | – | – | 1170 ng/µL | 497 ng/µL | 0 ng/µL | 0 ng/µL
PRT-349 (protein) MSQTEDSESLQRLRDIEDFQAEKKDQNVVYTKWLDGVDVKDHDFRKIVDGNIAYYATPLLNGRGLYDINKDFNRDSDKCAAAVAANMFHYWLDINRDNVDRFLRQNPEKHGIIELPDGQLKLSDFLNTYESDHGYRDKSKLFDFISENFNGPVWTDKLLDNYINGYAYNYKYGRTIEDPTKNTSKINFFKEVFNEKILTNNHSIRNQNELSVLLSEALYTGKAIGLSYGPAGLRHSLGHIISVWGADLDADGNVVAIYVTDSDDKKLTIGDERVGLKRYKISTDDENRLRLTAYEETHNTGGQVRGLWTLDTGKYAWADYFDKTEQTGTDQAEQ | 677 ng/µL | 215 ng/µL | 0 ng/µL | 286 ng/µL | – | – | – | –
